Test results as given in patent publication US20160272690A1 (BAO KANG BIOMEDICAL HEALTHCARE, published 2016).
Bridges are numbered along the chain shown (N, C = ends). Where no end group is shown, it is not given here. [ ]: non-standard residue; d: D form. hCys = N[C@@H](CCS)C(=O)O

T1: TEAD
T1 chain: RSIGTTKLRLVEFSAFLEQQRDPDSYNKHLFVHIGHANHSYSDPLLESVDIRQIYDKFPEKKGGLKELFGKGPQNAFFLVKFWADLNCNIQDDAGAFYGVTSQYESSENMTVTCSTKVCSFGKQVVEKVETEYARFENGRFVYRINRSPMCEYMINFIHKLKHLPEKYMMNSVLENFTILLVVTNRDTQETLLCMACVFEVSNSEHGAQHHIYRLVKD


Molecular target: T1, TEAD
Experiment: IC50 for TEAD binding (TR-FRET test)

Binder	IC50 [nM]
VPMCLRKLPESFCHPPE (disulfide 4-13) [polypeptide represented by SEQ ID NO.: 8]	28
VPM[hCys]LRKLPCSFCDPPE (disulfide 4-13) [polypeptide represented by SEQ ID NO.: 9]	25
